This assay addresses calmodulin (full-length wild-type CaM) (human, UniProt P0DP23 1-149). The experiment in a line: circular dichroism.

B1: pCaN, peptide encompassing the CaM-binding domain of calcineurin A (residues 391-414) (peptide)
peptide: not shown
As for B1, the binding result is recorded as “binds”.

The record behind these values is paper PMC4900146 (Biochemistry, 2016).
